Experimental findings from patent publication US20190136256 are described below.

For the data set, the target named is T1, Myc tagged AN (AN-Myc).
T1 chain: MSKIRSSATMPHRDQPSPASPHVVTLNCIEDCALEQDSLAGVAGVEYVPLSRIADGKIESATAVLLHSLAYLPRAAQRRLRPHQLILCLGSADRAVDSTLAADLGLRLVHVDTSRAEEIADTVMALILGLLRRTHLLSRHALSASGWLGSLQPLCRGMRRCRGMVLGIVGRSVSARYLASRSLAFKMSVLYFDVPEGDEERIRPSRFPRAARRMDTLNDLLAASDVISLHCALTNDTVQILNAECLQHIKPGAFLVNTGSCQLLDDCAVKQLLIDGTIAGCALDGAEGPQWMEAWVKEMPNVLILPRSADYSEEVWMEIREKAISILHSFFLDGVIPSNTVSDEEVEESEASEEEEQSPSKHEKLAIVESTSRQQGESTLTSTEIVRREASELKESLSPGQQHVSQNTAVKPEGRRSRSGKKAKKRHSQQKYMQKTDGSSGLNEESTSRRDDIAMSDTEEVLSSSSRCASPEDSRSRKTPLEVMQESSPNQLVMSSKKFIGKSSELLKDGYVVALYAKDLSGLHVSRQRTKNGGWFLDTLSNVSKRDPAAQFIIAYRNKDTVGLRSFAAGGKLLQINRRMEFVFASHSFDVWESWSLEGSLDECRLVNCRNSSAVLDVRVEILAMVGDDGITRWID

B1: HA-tagged TDP1 (HA-TDP1) (protein)
chain: MAHSQVAYLIPLKADLKEDNSSPRITLSEGPNIIGRGNVSIVDKRLSRKHITIIVSTSGSASLSVDGTNPVVIRSSGDGERKKVKPSEEVSVCNDDLIELIPGHHFFKLVLLNGRAAKKARKAEDDVEAIRRFCPPNEKLPSTFRLLSVDALPDWANTSCVSINDVIEGDVVAAILSNYMVDIDWLMSACPKLANIPQVMVIHGEGDGRQEYIQRKKPANWILHKPRLPISFGTHHSKAIFLVYPRGVRVVVHTANLIHVDWNNKSQGLWMQDFPWKDDDKDPPKGCGFEGDLIDYLNVLKWPEFTANLPGRGNVKINAAFFKKFDYSDATVRLIASVPGYHTGFNLNKWGHMKLRTILQECIFDREFRRSPLIYQFSSLGSLDEKWLAEFGNSLSSGITEDKTPLGPGDSLIIWPTVEDVRCSLEGYAAGNAIPSPLKNVEKPFLKKYWARWKADHSARGRAMPHIKTFTRYNDQKIAWFLLTSSNLSKAAWGALQKNNSQLMIRSYELGVLFLPSPIKTQGCVFSCTESNPSVMKAKQETKDEVEKRSKLVTMTWQGDRDLPEIISLPVPYQLPPKPYSPEDVPWSWDRGYSKKDVYGQVWPR
On to B1, for which the “µChIP-qPCR: association of AN with MYB46 promoter” value is given as “the chromatin association of AN with MYB46 promoter was significantly increased (p<0.05) in vivo when co-expressed with TDP1”.
